Results: patent US20040002075A1, “Heat-resistant cysteine synthase” (priority 2001, published 2004)

Legend:
[1] = Heat resistance, residual activity after incubation, assaying method (1); type: physicochemical; settings: for residual activity: 0.3 mg/mL enzyme in 50 mM potassium phosphate buffer (pH 6.7), FIG. 3
Protocol: The optimal pH was determined by the following assaying method (1) for cysteine synthase activity. Assaying Method of Cysteine Synthase Activity (1) Four enzyme solution samples were prepared by adding cysteine synthase to 50 mM potassium phosphate buffer (pH 6.7) containing 1 mM EDTA and 0.2 mM pyridoxal 5′-phosphate so as to obtain an enzyme concentration of 0.3 mg/mL. The samples were incubated for 6 hours at 4° C., 80° C., and 100° C., respectively, to assay residual activity.

[2] = Optimal temperature, cysteine synthase activity assaying method (2); type: biochemical; settings: 4 minutes reaction, FIG. 2
Protocol: The optimal temperature was determined by the following assaying method (2) for cysteine synthase activity. Assaying Method of Cysteine Synthase Activity (2) Purified enzyme was added to 50 mM potassium phosphate buffer (pH 7.5 or 7.0) containing 20 mM O-acetylserine and 2 mM sodium sulfide as substrates, and 0.2 mM pyridoxal 5′-phosphate so as to establish an enzyme concentration of 0.8 μg/mL, the reaction was brought about for 4 minutes, and the amount of cysteine synthesized was determined by the ninhydrin method to assay the enzyme activity.

B1: cysteine synthase: Heat-resistant cysteine synthase (O-acetylserine sulfhydrylase) of hyperthermophilic archaea Aeropyrum pernix K1, SEQ ID NO: 2, produced recombinantly in E. coli (protein)
chain: VALADISGYLDVLDSVRGFSYLENAREVLRSGEARCLGNPRSEPEYVKALYVIGASRIPVGDGCSHTLEELGVFDISVPGEMVFPSPLDFFERGKPTPLVRSRLQLPNGVRVWLKLEWYNPFSLSVKDRPAVEIISRLSRRVEKGSLVADATSSNFGVALSAVARLYGYRARVYLPGAAEEFGKLLPRLLGAQVIVDPEAPSTVHLLPRVMKDSKNEGFVHVNQFYNDANFEAHMRGTAREIFVQSRRGGLALRGVAGSLGTSGHMSAAAFYLQSVDPSIRAVLVQPAQGDSIPGIRRVETGMLWINMLDISYTLAEVTLEEAMEAVVEVARSDGLVIGPSGGAAVKALAKKAAEGDLEPGDYVVVVPDTGFKYLSLVQNALEGAGDSV
modifications: Aeropyrum pernix K1
[1]; after 6 hours of incubation at 80° C.
  residual activity: about 97%
[1]; after 6 hours of incubation at 100° C.
  residual activity: about 85%
[1]; heat-treatment at 80° C. for 6 hours
  activity of the enzyme after heat-treatment: substantially unimpaired
[2]; 50 mM potassium phosphate buffer pH 7.0
  optimal temperature: about 60 °C
[2]; 50 mM potassium phosphate buffer pH 7.5
  optimal temperature: about 50 °C
